Data: the supplement of paper PMC10567573

B1: C22orf15 (parent)
chain: PRGRAHLLPNPYQQDFLGLPEELR

Variants of: B1
Test: protein stability index of a GFP-peptide fusion (GPS, HEK-293T) (PSI 1-6); higher = more stable
Conditions: c terminus: a fixed tail appended
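Note: lentivirally expressed fusions sorted by FACS into six bins by GFP to DsRed ratio, PSI derived from sequencing read proportions per bin multiplied by bin number.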

Protein stability index: each site, then its substitutions
N10: A 3.95; C 3.58
H6: K 3.87; Q 3.75; Y 3.02; E 4.58; L 3.44; M 4.04; D 4.4; C 3.68; G 4.26; R 3.71; P 3.93; V 3.54; N 4.26; T 3.87; S 3.81; A 3.57; I 3.65; F 2.99; W 2.85
G3: S 3.52; M 2.7; N 3.61; I 3.83; C 3.15; F 3.79; H 3.79; R 3.52; V 3.93; K 3.16; L 3.51; W 3.27; D 4.03; Y 3.72; A 4.32; T 2.66; P 3.77; E 3.82; Q 3.45
P9: E 3.89; N 3.77; C 2.66; H 3.29; A 3.66; M 3.8; F 2.94; V 3.71; R 3.18; W 2.53; G 2.77; Q 3.84; Y 3.32; S 3.88; D 3.79; I 2.88; K 3.73; L 3.35; T 3.61
R4: D 4.25; E 3.96; T 3.68; A 4.23; L 3.59; M 3.42; C 2.85; P 3.92; S 3.81; F 3.77; V 3.86; K 3.36; W 2.96; G 4.27; Q 3.73; N 3.99; I 3.24; Y 3.57; H 4.06
L7: T 5.36; F 3.84; W 3.24; K 4; V 4.12; Q 3.86; D 3.96; H 3.9; I 3.8; N 4.33; C 3.84; A 4.23; S 4.98; M 4.18; E 4.62; R 4.12; Y 3.92; P 4.06; G 4.08
P1: L 2.64; I 2.37; H 3.6; W 2.92; M 2.93; S 3.23; Y 3.11; V 2.83; N 3.69; K 3.22; R 3.06; T 3.52; Q 3.72
A5: H 3.78; Q 4.07; M 3.48; C 2.69; F 2.69; L 3.12; S 4.04; E 3.9; P 3.56; Y 2.98; V 3.63; G 3.63; T 4.05; D 4.25; N 4.1; R 3.34; W 2.62; I 2.96; K 3.32
L8: N 4.09; Q 4.24; H 3.86; A 3.58; R 3.56; V 4.02; I 3.94; F 3.49; D 4.6; C 4.14; K 3.98; P 4; W 2.56; S 3.93; E 3.96; T 3.23; M 3.95; Y 3.25; G 3.59
R2: L 3.76; F 3.31; P 4.18; C 2.26; W 3.33; G 4; Q 4.24; V 3.81; A 4.04; S 4.15; H 3.87; T 4.22; N 3.46; Y 3.5; K 3.75; M 4.08; D 3.44; I 3.62; E 4.69
